Stoichiometry N data for one substance are collected here from paper PMC6105678.

In test [1] the target is Bonsai gelsolin, fragment 28–161 of gelsolin (human). Put plainly: SEC; 8 mg/ml in EGTA buffer heated at 30 °C for 30 min, cooled to room temperature; 200 μl injected, column at room temperature.
Test [2] has the same target. As to the kind of experiment: SAXS; 28–161 at 8 mg/ml, 1 mM free Ca2+, 40 °C.
For test [3] the target is unchanged. Put plainly: SAXS; 28–161 at 8 mg/ml, 1 mM EGTA, 30 °C.
Test [4] shares this target. Put plainly: SAXS; 28–161 at 8 mg/ml, 1 mM EGTA, 40 °C.

The stoichiometry N is a count of units in the complex or per binding partner. With “Bonsai gelsolin, fragment 28–161 of gelsolin (domain or fragment)”, the stoichiometry N in test [1] was 2; in test [2] it was 2; in test [3] it was 2; in test [4], 4.
